Measured values: US20240084003A1 (SIMCERE ZAIMING PHARMACEUTICAL, published 2024)

T1: murine CD22 protein (ACROBiosystems, SI2-M52Ha) (murine, UniProt P35329 22-708)
T1 construct: extracellular domain; also called murine CD22-ECD; murine CD22-ECD-His
T1 sequence (looked up): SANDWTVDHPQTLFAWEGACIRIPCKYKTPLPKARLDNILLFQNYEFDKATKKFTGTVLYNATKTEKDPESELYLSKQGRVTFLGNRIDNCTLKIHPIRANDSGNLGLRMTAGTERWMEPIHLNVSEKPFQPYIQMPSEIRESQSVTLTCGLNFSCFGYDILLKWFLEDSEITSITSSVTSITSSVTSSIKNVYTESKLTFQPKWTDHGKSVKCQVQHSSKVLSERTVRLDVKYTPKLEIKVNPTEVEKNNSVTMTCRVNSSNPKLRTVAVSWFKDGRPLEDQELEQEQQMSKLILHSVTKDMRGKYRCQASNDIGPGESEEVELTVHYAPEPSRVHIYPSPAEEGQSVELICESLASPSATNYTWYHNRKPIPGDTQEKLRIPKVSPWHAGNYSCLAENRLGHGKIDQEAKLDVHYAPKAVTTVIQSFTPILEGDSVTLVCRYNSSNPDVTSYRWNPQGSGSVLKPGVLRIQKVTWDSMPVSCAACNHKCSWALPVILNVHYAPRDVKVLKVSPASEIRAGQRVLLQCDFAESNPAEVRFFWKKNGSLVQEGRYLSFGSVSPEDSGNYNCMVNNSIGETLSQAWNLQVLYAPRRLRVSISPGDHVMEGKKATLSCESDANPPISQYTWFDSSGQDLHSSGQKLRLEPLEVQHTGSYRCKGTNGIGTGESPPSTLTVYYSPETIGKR

T2: human CD22, full length, on CHO-K1-human CD22 2C4 cells (human, UniProt P20273 20-847)
T2 construct: Full-length human CD22 (NCBI NP_001762.2) stably transfected into CHO-K1
T2 sequence: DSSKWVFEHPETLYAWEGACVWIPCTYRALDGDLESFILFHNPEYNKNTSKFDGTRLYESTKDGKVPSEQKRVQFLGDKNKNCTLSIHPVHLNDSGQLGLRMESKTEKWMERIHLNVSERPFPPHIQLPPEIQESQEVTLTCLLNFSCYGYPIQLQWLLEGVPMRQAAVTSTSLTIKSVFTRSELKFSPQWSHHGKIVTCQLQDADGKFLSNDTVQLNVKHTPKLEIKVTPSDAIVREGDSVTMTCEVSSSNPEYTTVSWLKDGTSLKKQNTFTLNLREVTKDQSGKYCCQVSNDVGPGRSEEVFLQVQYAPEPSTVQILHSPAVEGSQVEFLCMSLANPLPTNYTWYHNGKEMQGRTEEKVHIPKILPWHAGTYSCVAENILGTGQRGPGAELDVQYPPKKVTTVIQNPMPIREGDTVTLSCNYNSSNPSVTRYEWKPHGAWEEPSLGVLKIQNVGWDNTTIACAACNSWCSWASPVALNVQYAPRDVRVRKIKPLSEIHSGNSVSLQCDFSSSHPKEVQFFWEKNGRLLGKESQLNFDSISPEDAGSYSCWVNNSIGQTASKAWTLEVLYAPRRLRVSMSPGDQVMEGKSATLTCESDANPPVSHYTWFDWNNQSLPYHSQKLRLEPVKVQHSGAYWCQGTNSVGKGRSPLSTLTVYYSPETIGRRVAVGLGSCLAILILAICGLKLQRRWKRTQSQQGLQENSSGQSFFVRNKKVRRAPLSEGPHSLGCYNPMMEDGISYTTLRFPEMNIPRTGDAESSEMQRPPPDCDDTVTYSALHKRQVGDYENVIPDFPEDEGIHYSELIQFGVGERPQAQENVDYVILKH

T3: human CD22, endogenous on Raji cells (human, UniProt P20273 20-847)
T3 construct: whole, on cells; Endogenous protein of the Raji cell line
T3 sequence (looked up): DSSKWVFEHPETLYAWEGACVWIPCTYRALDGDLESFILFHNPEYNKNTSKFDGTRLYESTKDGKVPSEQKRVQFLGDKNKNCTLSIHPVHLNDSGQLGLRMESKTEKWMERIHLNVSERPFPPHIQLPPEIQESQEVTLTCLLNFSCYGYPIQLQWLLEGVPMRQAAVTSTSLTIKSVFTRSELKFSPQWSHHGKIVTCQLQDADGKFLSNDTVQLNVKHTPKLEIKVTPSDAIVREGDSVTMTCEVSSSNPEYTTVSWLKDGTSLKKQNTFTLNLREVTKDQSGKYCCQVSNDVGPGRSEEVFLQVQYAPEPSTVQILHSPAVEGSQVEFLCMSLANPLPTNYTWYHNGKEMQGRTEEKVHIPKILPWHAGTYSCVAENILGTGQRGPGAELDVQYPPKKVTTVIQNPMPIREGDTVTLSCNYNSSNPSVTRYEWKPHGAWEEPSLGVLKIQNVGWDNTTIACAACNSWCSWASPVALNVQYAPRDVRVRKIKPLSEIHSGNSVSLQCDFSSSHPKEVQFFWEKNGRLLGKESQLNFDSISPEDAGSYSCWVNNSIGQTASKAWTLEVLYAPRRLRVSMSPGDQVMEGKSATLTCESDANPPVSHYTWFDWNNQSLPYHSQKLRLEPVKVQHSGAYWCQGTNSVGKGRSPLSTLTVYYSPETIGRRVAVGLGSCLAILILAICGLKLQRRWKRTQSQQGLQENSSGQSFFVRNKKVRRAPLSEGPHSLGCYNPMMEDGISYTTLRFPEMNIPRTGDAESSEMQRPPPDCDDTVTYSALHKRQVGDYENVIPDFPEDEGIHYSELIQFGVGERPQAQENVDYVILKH


Experiments:
[1] = target: T1, murine CD22 protein (ACROBiosystems, …); assay: ELISA, coated murine CD22, 0.1 nM Ab
Procedure: (§1) In order to detect the binding activity of CD22 human-murine chimeric antibodies to CD22 protein, the purified human CD22-ECD-His protein obtained in Example 2 was diluted with PBS to a final concentration of 2 μg/mL, and then added to 96-well ELISA plate at 100 μl/well. The plate was sealed with plastic film and incubated overnight at 4° C., the plate was washed 2 times with PBS the next day, and then a blocking solution [PBS+2% (w/w) BSA] was added for blocking at room temperature for 2 hours. […] After incubation at 37° C. for 2 hours, the plate was washed 3 times with PBS. HRP (horseradish peroxidase)-labeled secondary antibody (purchased from Sigma, catalog number: A0170) was added, and incubated at 37° C. for 2 hours, and the plate was washed 5 times with PBS. TMB substrate was added at 50 μl/well, and incubated at room temperature for 30 minutes, then a stop solution (1.0 N HCl) was added at 50 μl/well.
(§2) In order to detect the species cross-binding activity of the chimeric antibodies, an ELISA plate was coated with commercial murine CD22 protein (ACROBiosystems, catalog number: SI2-M52Ha) and monkey CD22 protein (ACROBiosystems, catalog number: SI2-R52Ha), respectively, and the ELISA detection was performed according to the method in Example 5.1.

[2] = target: T1, murine CD22 protein (ACROBiosystems, …); assay: ELISA, coated murine CD22, 0.001 nM Ab
Procedure: as §1, §2

[3] = target: T1, murine CD22 protein (ACROBiosystems, …); assay: ELISA, coated murine CD22, 0.01 nM Ab
Procedure: as §1, §2

[4] = target: T1, murine CD22 protein (ACROBiosystems, …); assay: ELISA, coated murine CD22, 0.00001 nM Ab
Procedure: as §1, §2

[5] = target: T1, murine CD22 protein (ACROBiosystems, …); assay: ELISA, coated murine CD22, 0.0001 nM Ab
Procedure: as §1, §2

[6] = target: T2, human CD22, full length, on …; assay: FACS, CHO-K1-human CD22 2C4 cells
Source text: (§3) The required cells were scale-up cultured in a T-75 cell culture flask to the logarithmic growth phase. For the adherent cell CHO-K1, the medium was aspirated, the cells were washed 2 times with PBS buffer, and then digested with trypsin. After the digestion was terminated, the cells were washed 2 times with PBS buffer. For suspension cell Raji, the medium supernatant was directly centrifuged and discarded, and the cell pellet was washed 2 times with PBS. After counting the cells in the previous step, the cell pellet was resuspended with [PBS+2% (w/w) BSA] blocking solution to 2×10⁶ cells/ml, and added to a 96-well FACS reaction plate at 50 μl/well, and then the chimeric antibody test sample was added at 50 μl/well, and incubated on ice for 2 hours. The mixture was centrifuged and washed 3 times with PBS buffer, Alexa Flour 488-labeled secondary antibody (purchased from Invitrogen, catalog number: A-11013) was added at 50 μl/well, and incubated on ice for 1 hour. The obtained mixture was centrifuged and washed 5 times with PBS, and FACS (FACS Canto™, purchased from BD Company) was used for detection and result analysis. Data analysis was performed by software (CellQuest) to obtain the mean fluorescence density (MFI)of the cells. And then software (GraphPad Prism8) was used for analysis, data fitting, and EC50 value calculation. […] The same method was used to detect the binding of the chimeric antibodies to endogenous CD22-negative cell MoLT4 cells (purchased from ATCC, CRL-1582) and CHO-K1 cells.

[7] = target: T1, murine CD22 protein (ACROBiosystems, …); assay: ELISA, coated murine CD22, 100 nM Ab
Procedure: as §1, §2

[8] = target: T1, murine CD22 protein (ACROBiosystems, …); assay: ELISA, coated murine CD22, 10 nM Ab
Procedure: as §1, §2

[9] = target: T3, human CD22, endogenous on Raji cells; assay: FACS, Raji cells
Source text: as §3

Binder | OD450 [1] [OD450] | OD450 [2] [OD450] | OD450 [3] [OD450] | OD450 [4] [OD450] | OD450 [5] [OD450] | EC50 [6] [nM] | Maximum mean fluorescence intensity [6] [MFI] | OD450 [7] [OD450] | OD450 [8] [OD450] | EC50 [9] [nM] | Maximum mean fluorescence intensity [9] [MFI]
F1.60.9 human-murine chimeric antibody (antibody, human IgG1, kappa, V domains shown, Chimeric, human IgG1 / kappa) VH: QVQLKESGPGLVAPSQSLSITCTVSGLSLNNYGVSWVRQPPGKGLEWLGVIWGDGSTNYHSALISRLSISKDNSKSQVFLKLNSLHTDDTATYYCAINWGDYWGQGTTLIVSS VL: DIKMTQSPSSMNASLGERVTITCKASQDINSYLSWFQQKPGKSPKILIYRANRLIDGVPSRFSGSGSGQDYSLTISSLEYEDMGIYYCLQYGVFPLTFGAGTKLELKR | 0.05 | 0.05 | 0.06 | 0.06 | 0.06 | 0.61 | 30100 | 0.08 | 0.06 | 0.29 | 25300
F1.17.1 human-murine chimeric antibody (antibody, human IgG1, kappa, V domains shown, Chimeric, human IgG1 / kappa) VH: QVQLKESGPGLVAPSQSLSITCTVSGFSLSRYTVHWVRQPPGKGLEWLGMIWGGGSTDYNSALKSRLSISKDNSKSQVFLKMNSLQTDDTAMYYCARPHDFDAGGFAYWGQGTLVTVSA VL: QIVLTQSPAILSTSPGEKVTMTCSASSRVNYMYWYQQKPGSSPRLLIYDTSNLASGVPVRFSGSGSGTSYSLTISRMEAEDAATYYCQQWTSYPLTFGAGTKLELKR | 0.05 | 0.05 | 0.05 | 0.06 | 0.05 | 0.44 | 36900 | 0.07 | 0.06 | 0.17 | 28500
F1.245.2 human-murine chimeric antibody (antibody, human IgG1, kappa, V domains shown, Chimeric, human IgG1 / kappa) VH: EVQLQQSGAELVKPGASVKLSCTGSGFNIKDYYIHWVKQRTEQGLEWMGRIDPEDGETEYAPKFQDEATITSDTSSNTAYLQLSSLTYEDTAVYYCAREAAGYFYRGSSYGYFDVWGTGTTVTVSS VL: DFQMTQTTSFLSASLGDRVTISCSASQDISNYLNWYQQKPDGTVKLLIYYTSSLHSGVPSRFSGSGSGTDYSLTISNLEPEDIATYYCQQYSMLPYTFGGGTKLEMER | 0.06 | 0.06 | 0.06 | 0.06 | 0.07 | 0.33 | 43300 | 0.09 | 0.07 | 0.07 | 29900
F1.161.7 human-murine chimeric antibody (antibody, human IgG1, kappa, V domains shown, Chimeric, human IgG1 / kappa) VH: QVQLQQPGAELVKPGASVKMSCKASGYTFTSYWISWVKQRPGQGLEWIGDIYPGTGSSNYNEKFKSKATLTVDTSSSTAYMQLSSLTSEDSAVYYCARLKFEGIGYWGQGTTLTVSS VL: QIVLTQSPAIMSASLGEEITLTCSASSSVSYMHWFQQKSGTSPKLLIYSISNLASGVPSRFSGSGSGTFYSLTISSVEAEDAADYYCHQWSSYPWTFGGGTKLEIKR | 0.05 | 0.05 | 0.05 | 0.06 | 0.05 | 0.59 | 37100 | 0.08 | 0.06 | 0.22 | 27900
F1.257.3 human-murine chimeric antibody (antibody, human IgG1, kappa, V domains shown, Chimeric, human IgG1 / kappa; VL tied by name) VH: QVQLQQSGPELARPGASVKLSCKASGYTFTSYGISWVKQRTGQDLEWIGEIYPKLGTTYYNEKFKDKATLTTDRSSSTAYMALRSLTSEDSAVYFCACPHYYATRGGDYWGQGTTLTVSS VL: EIVLTQSPATLSVTPGDSVTFSCRASQSISNHLHWYQQKSHESPRLLIRYASQSISGIPSRFSGSGSGTDFTLSLSSVETEDFGVYFCQQSHSWPYTFGGGTKLEIAR | 0.05 | 0.05 | 0.05 | 0.06 | 0.05 | 0.68 | 46600 | 0.2 | 0.07 | 0.27 | 29300
F1.172.13 human-murine chimeric antibody (antibody, human IgG1, kappa, V domains shown, Chimeric, human IgG1 / kappa) VH: QVTLKESGPGILQSSQTLSLTCSFSGFSLSTSGMGVSWIRQPSGKGLEWLAHIYWDDDKRYNPSLKSRLTISKDTSRNQVFLKITSVDTADTATYYCARAPPPNWDEYYFDYWGQGTTLTVSS VL: DIQMTQSPASLSASVGETVTITCRASGNIHNSLAWYQQKQGKSPQLLVHNAKTLADGVPSRFSGSGSGTQYSLKINSLQPEDFGSYYCQHFWSTPPFGGGTKLEIKR | 0.05 | 0.05 | 0.05 | 0.06 | 0.06 | 0.59 | 33800 | 0.08 | 0.06 | 0.17 | 23800
